The target in test [1] is wild-type CD47 re-expressed in CD47-deficient JinB8 T cells (UniProt Q08722).
Test [2] deals with CD47 on Jurkat T cells (human (endogenous in Jurkat)) (UniProt Q08722).

In turn, “recombinant thrombospondin-1 (TSP-1) (from UniProt P07996 19-1170) (natural protein)” gave an inhibition of CD69 induction (mRNA, real-time PCR) in anti-CD3-activated JinB8 cells transfected with wild-type CD47 in test [1] of 35.1%. Moreover, the reduction of CD69 mRNA expression (real-time PCR) in Jurkat T cells activated by anti-CD3 antibody for 2 hours, TSP-1 10 µg/ml; no inhibition in CD47-deficient JinB8 T cells in test [2] was 45%.
“Blastomyces adhesin-1 (BAD-1), native protein purified from B. dermatitidis yeast (natural protein)”: the inhibition of CD69 induction (mRNA, real-time PCR) in anti-CD3-activated JinB8 cells transfected with wild-type CD47 in test [1] stood at 34.9%. Further, the reduction of CD69 mRNA expression (real-time PCR) in Jurkat T cells activated by anti-CD3 antibody for 2 hours, BAD-1 10 µg/ml; no block in CD47-deficient JinB8 T cells in test [2] was 65%.

(Values after PMC3708853.)
